The text below walks through data of US20240002844.

This series deals with T1, recombinant SHN3 (rSHN3, 50-930 aa) (UniProt A2A884).
T1 sequence: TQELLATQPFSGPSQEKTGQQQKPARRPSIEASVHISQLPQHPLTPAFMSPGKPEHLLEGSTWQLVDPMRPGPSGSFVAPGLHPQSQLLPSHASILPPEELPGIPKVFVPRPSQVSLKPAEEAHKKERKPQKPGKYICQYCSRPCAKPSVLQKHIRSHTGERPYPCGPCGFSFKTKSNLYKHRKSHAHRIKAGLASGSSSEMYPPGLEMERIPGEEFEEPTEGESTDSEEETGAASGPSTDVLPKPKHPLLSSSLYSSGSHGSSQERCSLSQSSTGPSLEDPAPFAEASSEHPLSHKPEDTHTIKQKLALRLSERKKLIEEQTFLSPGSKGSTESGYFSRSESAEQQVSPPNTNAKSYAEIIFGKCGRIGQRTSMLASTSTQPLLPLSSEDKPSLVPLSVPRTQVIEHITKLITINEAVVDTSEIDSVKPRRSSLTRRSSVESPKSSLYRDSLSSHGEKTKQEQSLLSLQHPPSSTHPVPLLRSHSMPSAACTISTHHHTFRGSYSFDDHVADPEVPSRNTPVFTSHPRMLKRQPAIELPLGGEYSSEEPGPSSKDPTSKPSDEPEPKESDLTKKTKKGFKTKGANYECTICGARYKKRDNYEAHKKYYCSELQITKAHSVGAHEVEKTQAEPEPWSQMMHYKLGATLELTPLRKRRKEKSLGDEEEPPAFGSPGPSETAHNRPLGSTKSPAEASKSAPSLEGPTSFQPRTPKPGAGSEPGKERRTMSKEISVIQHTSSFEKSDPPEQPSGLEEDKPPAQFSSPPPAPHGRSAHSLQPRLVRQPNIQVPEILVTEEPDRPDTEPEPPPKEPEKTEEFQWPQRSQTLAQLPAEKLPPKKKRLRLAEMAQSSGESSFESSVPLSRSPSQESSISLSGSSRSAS

recombinant ERK2 (rERK2), sequence (P28482 2-360): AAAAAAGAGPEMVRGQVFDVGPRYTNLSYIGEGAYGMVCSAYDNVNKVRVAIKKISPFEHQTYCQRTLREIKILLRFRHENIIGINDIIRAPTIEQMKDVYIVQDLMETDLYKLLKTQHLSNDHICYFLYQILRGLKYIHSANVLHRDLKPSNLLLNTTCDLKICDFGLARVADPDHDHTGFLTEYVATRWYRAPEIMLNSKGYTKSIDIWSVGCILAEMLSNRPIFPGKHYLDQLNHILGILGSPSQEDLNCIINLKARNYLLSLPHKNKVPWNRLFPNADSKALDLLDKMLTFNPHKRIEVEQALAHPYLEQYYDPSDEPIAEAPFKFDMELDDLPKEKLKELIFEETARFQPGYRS

For recombinant ERK2 (rERK2), the “in vitro kinase assay: rERK2-induced phosphorylation of rSHN3 (FIG. 9C)” value is listed as “recombinant SHN3 (rSHN3) was phosphorylated by recombinant ERK2 (rERK2)”; the “in vitro kinase assay: rERK2-induced phosphorylation of the ERK substrate ELK1 (FIG. 9C)” value is reported as “rSHN3 inhibited rERK2-induced phosphorylation of the ERK substrate ELK1”; the “phospho-spectrometry analysis of rERK and rSHN3 (FIG. 9D)” value is “rERK phosphorylates rSHN3 at two serines (810 and 811 aa), one threonine (851 aa), and two serines (911 and 913 aa)”.
